Six molecules from publication PMC8067865 (Molecules, 2021) can be followed below.

What all share (test): native MS; 3 to 4.5 uM purified P dimers, buffer exchanged to ammonium acetate (GII.10 Vietnam 125 mM; GII.17 Kawasaki and GII.4 Saga 300 mM; GII.4 MI001 250 mM) pH 7.5; nano-ESI, positive ion mode, 25 °C; monomer-dimer
Series [1] concerns the target partially deamidated GII.4 MI001 P domain (VP1 residues 225-530), approximately 64% deamidated at N373 (human norovirus GII.4 MI001).
In series [2] the target is fully deamidated (iDiD) GII.4 Saga P domain (VP1 residues 225-530), N373 converted to iso-aspartate (human norovirus GII.4 Saga 2006) (UniProt B5BTR7).
Series [3] has as its target GII.4 MI001 P domain (VP1 residues 225-530), wildtype N373 (human norovirus GII.4 MI001).
Series [4] concerns the target GII.17 Kawasaki 308 P domain (VP1 residues 225-530) (human norovirus GII.17 Kawasaki 308).
The target in series [5] is GII.10 Vietnam 026 P domain (VP1 residues 224-538) (human norovirus GII.10 Vietnam 026).
Series [6] concerns the molecule itself.

With “partially deamidated GII.4 MI001 P domain (VP1 residues 225-530), approximately 64% deamidated at N373 (domain or fragment)”, in series [1], the percent monomers was 16%.

“fully deamidated (iDiD) GII.4 Saga P domain (VP1 residues 225-530), N373 converted to iso-aspartate (from UniProt B5BTR7 225-530) (domain or fragment)” yielded a percent monomers in series [2] of 32%. Molecule “GII.4 MI001 P domain (VP1 residues 225-530), wildtype N373 (domain or fragment)” registered a stoichiometry N in series [3] of 2.

In series [4], “GII.17 Kawasaki 308 P domain (VP1 residues 225-530) (domain or fragment)” came in with a stoichiometry N of 2.

Regarding “GII.10 Vietnam 026 P domain (VP1 residues 224-538) (domain or fragment)”, the stoichiometry N in series [5] was 2.

B1: GII.4 Saga 2006 P domain (VP1 residues 225-530), wildtype N373 (NN) (domain or fragment)
chain: GPGSKPFTVPILTVEEMTNSRFPIPLEKLFTGPSGAFVVQPQNGRCTTDGVLLGTTQLSPVNICTFRGDVTHIAGSRNYTMNLASLNWNNYDPTEEIPAPLGTPDFVGKIQGLLTQTTKGDGSTRGHKATVYTGSAPFTPKLGSVQFSTDTENDFETHQNTKFTPVGVIQDGSTTHRNEPQQWVLPSYSGRNVHNVHLAPAVAPTFPGEQLLFFRSTMPGCSGYPNMDLDCLLPQEWVQHFYQEAAPAQSDVALLRFVNPDTGRVLFECKLHKSGYVTVAHTGQHDLVIPPNGYFRFDSWVNQFYTLAPM
notes: major capsid protein VP1 of human norovirus GII.4 Saga 2006, protruding (P) domain, VP1 residues 225-530; also called GII.4 Saga P dimer; wildtype GII.4 Saga P domains; source: E. coli BL21(DE3), purified (Ni-NTA, HRV 3C cleavage, SEC; cation exchange to separate pure N373 wildtype); not shown: two His-tags, N-terminal, cleaved
As for B1, the “stoichiometry N” value in series [6] was 2.

By stoichiometry N is commonly meant the number of molecules, sites or subunits per partner or assembly.
